Data on eleven molecules can be found in patent US20230357429A1 (JANUX THERAPEUTICS, published 2023).

Where no end group is shown, it is not given here.

Assay [1] concerns the target T1, Human TROP2 ECD (31-274 AA), biotinylated (human, UniProt P09758 31-274, biotinylated (site not stated)).
T1 construct: also called tumor-associated calcium signal transducer 2; Human TROP2-biotin
T1 sequence: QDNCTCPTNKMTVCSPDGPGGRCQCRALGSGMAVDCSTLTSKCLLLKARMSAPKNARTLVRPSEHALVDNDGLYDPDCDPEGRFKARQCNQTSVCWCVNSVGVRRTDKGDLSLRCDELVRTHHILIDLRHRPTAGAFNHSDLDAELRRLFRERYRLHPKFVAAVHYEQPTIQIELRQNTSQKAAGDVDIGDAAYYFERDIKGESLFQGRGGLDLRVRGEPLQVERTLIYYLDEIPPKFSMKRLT
Briefly: ELISA on immobilized TROP2.

Assay [2] addresses T2, TCE-1 (anti-CD3 scFv wt; anti-TROP2 Fab wt).
T2 construct: anti-CD3 scFv fused to the N-terminus of the anti-TROP2 Fab heavy chain; also called TCE-1 (wt)
Briefly: competition ELISA: peptide titrated and pre-incubated with a constant concentration of TCE-1, binding of TCE-1 to plate-bound biotinylated CD3 detected. In general terms: An ELISA detects its analyte on a solid surface through an enzyme-linked reagent.

Assay [3] has as its target T3, TCE-31 (anti-CD3 scFv W238A; anti-TROP2 wt).
T3 construct: scFv on the Fab heavy chain; also called TCE-31 (W238A)
Briefly: competition ELISA, TCE on captured CD3.

Assay [4] concerns the target T4, TCE-33 (anti-CD3 scFv F240A; anti-TROP2 wt).
T4 construct: scFv on the Fab heavy chain; also called TCE-33 (F240A)
Description: competition ELISA, TCE on captured CD3.

The target of assay [5] is T5, TCE-13 (anti-CD3 scFv N103A; anti-TROP2 wt).
T5 construct: scFv on the Fab heavy chain; also called TCE-13 (N103A)
Briefly: competition ELISA, TCE on captured CD3.

The target of assay [6] is T6, TCE-14 (anti-CD3 scFv F104A; anti-TROP2 wt).
T6 construct: scFv on the Fab heavy chain; also called TCE-14 (F104A)
Description: competition ELISA, TCE on captured CD3.

In assay [7] the target is T7, TCE-11 (anti-CD3 scFv H101A; anti-TROP2 wt).
T7 construct: scFv on the Fab heavy chain; also called TCE-11 (H101A)
Description: competition ELISA, TCE on captured CD3.

The target in assay [8] is T8, TCE-20 (anti-CD3 scFv S110A; anti-TROP2 wt).
T8 construct: scFv on the Fab heavy chain; also called TCE-20 (S110A)
Description: competition ELISA, TCE on captured CD3.

Assay [9] has as its target T9, TCE-10 (anti-CD3 scFv R100A; anti-TROP2 wt).
T9 construct: scFv on the Fab heavy chain; also called TCE-10 (R100A)
Description: competition ELISA, TCE on captured CD3.

Assay [10] concerns the target T1, Human TROP2 ECD (31-274 AA), …. Briefly: BLI (Octet), dissociation half-life from biotinylated human TROP2 ECD. Background: BLI is a label-free optical method that tracks binding on a fibre tip over time.
Assay [11] has the same target. Description: ELISA, biotinylated TROP2 ECD on neutravidin plate, Fab titrated.
The target is the same in assay [12]. Briefly: BLI (Octet), biotinylated human TROP2 ECD on SAX sensor, Fab 6.25-50 nM.
For assay [13] the target is unchanged. Description: ELISA: biotinylated TROP2 captured on neutravidin plate, Fab titrated, HRP secondary antibody.
For assay [14] the target is unchanged. Briefly: ELISA, ratio of EC50 to that of TBD-1 wt.
For assay [15] the target is unchanged. Briefly: ELISA: biotinylated TROP2 captured on neutravidin plate, Fab titrated, HRP secondary antibody. The source holds these as a separate data set.
For assay [16] the target is unchanged. Description: ELISA, biotinylated TROP2 ECD on neutravidin plate, Fab titrated. This is another data set of the same source.

B1: PC-9 (bispecific antibody)
light: not shown
heavy: GGVDFCGLYHWPICYQGGGGSGGLSGRSDAGSPLGLAGSGGSQVQLQQSGSELKKPGASVKVSCKASGYTFTNYGMNWVKQAPGQGLKWMGWINTYTGEPTYTDDFKGRFAFSLDTSVSTAYLQISSLKADDTAVYFCARGGFGSSYWYFAVWGQGSLVTVSSASTKGPSVFPLAPSSKSTSGGTAALGCLVKDYFPEPVTVSWNSGALTSGVHTFPAVLQSSGLYSLSSVVTVPSSSLGTQTYICNVNHKPSNTKVDKKVEPKSC
notes: anti-TROP2 D109A
In assay [1], B1 showed a 50% effective concentration (EC50) of 194 nM.

As for GSQCLGPEWEVCPY (cysteine pairing not given here; also: biotinylated, site not given here, mask peptide for the CD3 scFv) [Peptide-66], the binding result in [2] is recorded as “binds”. Besides, the IC50 in [3] came out at 51.5 µM; in assay [4] it was 3.71 µM; in assay [5] it was 21.4 µM; in [6], 7.09 µM; in assay [7], 2620 nM; in [8] it was 721 µM. Also, in assay [9], the IC50 was 13.1 µM.

B2: PC-10 (bispecific antibody)
light: GGVDFCGLYHWPICYQGGGGSSGGSAAGLLAPPGGLSGRSDAGGGGSDIQLTQSPSSLSASVGDRVSITCKASQDVSIAVAWYQQKPGKAPKLLIYSASYRYTGVPDRFSGSGSGTDFTLTISSLQPEDFAVYYCQQHYITPLTFGAGTKVEIKRTVAAPSVFIFPPSDEQLKSGTASVVCLLNNFYPREAKVQWKVDNALQSGNSQESVTEQDSKDSTYSLSSTLTLSKADYEKHKVYACEVTHQGLSSPVTKSFNRGEC
heavy: not shown
notes: anti-TROP2 D109A
In assay [1], B2 yielded an EC50 of 181 nM.

B3: TBD-2 (anti-TROP2 Fab, LC Q89A) (Fab, V domains shown)
VH: QVQLQQSGSELKKPGASVKVSCKASGYTFTNYGMNWVKQAPGQGLKWMGWINTYTGEPTYTDDFKGRFAFSLDTSVSTAYLQISSLKADDTAVYFCARGGFGSSYWYFDVWGQGSLVTVSS
VL: DIQLTQSPSSLSASVGDRVSITCKASQDVSIAVAWYQQKPGKAPKLLIYSASYRYTGVPDRFSGSGSGTDFTLTISSLQPEDFAVYYCAQHYITPLTFGAGTKVEIKR
For B3, in assay [10], the “t1/2” value came out at 24 min. In addition, the values for the EC50 in [11] and in [13] were 4.7 nM and 4.71 nM, respectively. In addition, the Kd in [12] was found to be 10.4 nM. The “Fold shift in EC50 relative to wt” value in [14] turned out to be 23.5 fold.

B4: TBD-6 (anti-TROP2 Fab, LC I93A) (Fab, V domains shown)
VH: QVQLQQSGSELKKPGASVKVSCKASGYTFTNYGMNWVKQAPGQGLKWMGWINTYTGEPTYTDDFKGRFAFSLDTSVSTAYLQISSLKADDTAVYFCARGGFGSSYWYFDVWGQGSLVTVSS
VL: DIQLTQSPSSLSASVGDRVSITCKASQDVSIAVAWYQQKPGKAPKLLIYSASYRYTGVPDRFSGSGSGTDFTLTISSLQPEDFAVYYCQQHYATPLTFGAGTKVEIKR
notes: also called TBD-6 (LC I93A mutant)
Take B4: the “t1/2” value in [10] stood at 28 min. For the same molecule, the EC50 worked out at 0.3 nM in assay [11] and 0.29 nM in [13]. The same molecule registered a Kd in assay [12] of 0.7 nM. Moreover, in [14], the “Fold shift in EC50 relative to wt” value was determined as 1.5 fold.

B5: TBD-3 (anti-TROP2 Fab, LC Q90A) (Fab, V domains shown)
VH: QVQLQQSGSELKKPGASVKVSCKASGYTFTNYGMNWVKQAPGQGLKWMGWINTYTGEPTYTDDFKGRFAFSLDTSVSTAYLQISSLKADDTAVYFCARGGFGSSYWYFDVWGQGSLVTVSS
VL: DIQLTQSPSSLSASVGDRVSITCKASQDVSIAVAWYQQKPGKAPKLLIYSASYRYTGVPDRFSGSGSGTDFTLTISSLQPEDFAVYYCQAHYITPLTFGAGTKVEIKR
With B5, in assay [10], the “t1/2” value is 27 min. In addition, the EC50 in assay [11] was determined as 0.3 nM; in assay [13], 0.27 nM. In assay [12], this molecule yielded a Kd of 0.7 nM. Besides, the “Fold shift in EC50 relative to wt” value in assay [14] was determined as 1.5 fold.

B6: TBD-19 (anti-TROP2 Fab, HC W106A) (Fab, V domains shown)
VH: QVQLQQSGSELKKPGASVKVSCKASGYTFTNYGMNWVKQAPGQGLKWMGWINTYTGEPTYTDDFKGRFAFSLDTSVSTAYLQISSLKADDTAVYFCARGGFGSSYAYFDVWGQGSLVTVSS
VL: DIQLTQSPSSLSASVGDRVSITCKASQDVSIAVAWYQQKPGKAPKLLIYSASYRYTGVPDRFSGSGSGTDFTLTISSLQPEDFAVYYCQQHYITPLTFGAGTKVEIKR
Take B6: the EC50 in assay [15] and in assay [16] was 702 nM in each case.

B7: TBD-9 (anti-TROP2 Fab, LC L96A) (Fab, V domains shown)
VH: QVQLQQSGSELKKPGASVKVSCKASGYTFTNYGMNWVKQAPGQGLKWMGWINTYTGEPTYTDDFKGRFAFSLDTSVSTAYLQISSLKADDTAVYFCARGGFGSSYWYFDVWGQGSLVTVSS
VL: DIQLTQSPSSLSASVGDRVSITCKASQDVSIAVAWYQQKPGKAPKLLIYSASYRYTGVPDRFSGSGSGTDFTLTISSLQPEDFAVYYCQQHYITPATFGAGTKVEIKR
Turning to B7, the “t1/2” value in [10] was 5 min. Further, the EC50 in assay [11] and in assay [13] was 16.8 nM each time. Moreover, in [12], the Kd was found to be 8.4 nM. Besides, in assay [14], the “Fold shift in EC50 relative to wt” value is 84 fold.

B8: TBD-8 (anti-TROP2 Fab, LC P95A) (Fab, V domains shown)
VH: QVQLQQSGSELKKPGASVKVSCKASGYTFTNYGMNWVKQAPGQGLKWMGWINTYTGEPTYTDDFKGRFAFSLDTSVSTAYLQISSLKADDTAVYFCARGGFGSSYWYFDVWGQGSLVTVSS
VL: DIQLTQSPSSLSASVGDRVSITCKASQDVSIAVAWYQQKPGKAPKLLIYSASYRYTGVPDRFSGSGSGTDFTLTISSLQPEDFAVYYCQQHYITALTFGAGTKVEIKR
As for B8, the “t1/2” value in assay [10] was found to be 61 min. Moreover, the EC50 in assay [11] and in assay [13] was 0.2 nM in each case. For the same molecule, binding in assay [12] was characterised by a dissociation constant (Kd) of 0.3 nM. Also, the “Fold shift in EC50 relative to wt” value in assay [14] is 1 fold.

B9: TBD-10 (anti-TROP2 Fab, LC T97A) (Fab, V domains shown)
VH: QVQLQQSGSELKKPGASVKVSCKASGYTFTNYGMNWVKQAPGQGLKWMGWINTYTGEPTYTDDFKGRFAFSLDTSVSTAYLQISSLKADDTAVYFCARGGFGSSYWYFDVWGQGSLVTVSS
VL: DIQLTQSPSSLSASVGDRVSITCKASQDVSIAVAWYQQKPGKAPKLLIYSASYRYTGVPDRFSGSGSGTDFTLTISSLQPEDFAVYYCQQHYITPLAFGAGTKVEIKR
Turning to B9, the “t1/2” value in assay [10] was 37 min. For the same molecule, the EC50 in assay [11] worked out at 0.3 nM; in assay [13] it was 0.29 nM. The molecule further returned an equilibrium dissociation constant (Kd) in assay [12] of 0.6 nM. The “Fold shift in EC50 relative to wt” value in assay [14] was 1.5 fold.

B10: TBD-7 (anti-TROP2 Fab, LC T94A) (Fab, V domains shown)
VH: QVQLQQSGSELKKPGASVKVSCKASGYTFTNYGMNWVKQAPGQGLKWMGWINTYTGEPTYTDDFKGRFAFSLDTSVSTAYLQISSLKADDTAVYFCARGGFGSSYWYFDVWGQGSLVTVSS
VL: DIQLTQSPSSLSASVGDRVSITCKASQDVSIAVAWYQQKPGKAPKLLIYSASYRYTGVPDRFSGSGSGTDFTLTISSLQPEDFAVYYCQQHYIAPLTFGAGTKVEIKR
Turning to B10, the “t1/2” value in assay [10] came to 39 min. The concentration giving a half-maximal response (EC50) came to 0.2 nM in [11] and 0.22 nM in assay [13]. The same molecule had a Kd in [12] of 0.6 nM. For the same molecule, the “Fold shift in EC50 relative to wt” value in assay [14] was 1 fold.

For orientation: EC50 means the concentration that produces a half-maximal response. The low end stands for greater potency, the high end for weaker potency. In general, IC50 refers to the midpoint of a concentration-inhibition curve. In general, Kd refers to the constant that tells how readily two partners part at equilibrium. Read a low Kd as tighter binding.
